From patent US8946384

Experiments:
[1] = biological target: T1, recombinant type-2 Shiga toxin (Stx2) holotoxin (E. coli EHEC O157: H7), P09385
T1 chain 1: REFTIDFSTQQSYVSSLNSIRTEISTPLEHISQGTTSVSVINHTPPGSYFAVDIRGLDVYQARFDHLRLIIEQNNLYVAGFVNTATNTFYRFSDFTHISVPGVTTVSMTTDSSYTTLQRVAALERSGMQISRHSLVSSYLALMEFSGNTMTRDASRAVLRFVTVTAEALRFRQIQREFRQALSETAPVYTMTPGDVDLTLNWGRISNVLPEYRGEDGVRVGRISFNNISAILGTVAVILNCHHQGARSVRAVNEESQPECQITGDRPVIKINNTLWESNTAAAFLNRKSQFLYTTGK
T1 chain 2: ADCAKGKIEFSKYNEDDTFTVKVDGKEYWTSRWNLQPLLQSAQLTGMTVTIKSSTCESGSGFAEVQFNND

[2] = biological target: T2, recombinant Stx2B (B subunit of type-2 Shiga toxin) (E. coli EHEC O157: H7), P09386
T2 chain: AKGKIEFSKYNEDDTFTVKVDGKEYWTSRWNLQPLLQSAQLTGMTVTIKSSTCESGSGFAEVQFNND

TFNMWLPTFNQW (modifications not checked) [polypeptide TF1] gave a Kd [1] of 1.25 µM, a percent of HeLa cells showing fluorescence [2] of 52.8% and a percent of binding between FITC-Stx2B and HeLa cells blocked [2] of 45.7%.

WAPWYSFTSYHL (modifications not checked) [polypeptide WA8] gave a Kd [1] of 24.8 µM and a blocking rate of binding between FITC-Stx2B and HeLa cells [2] of 24.8%.
